# Source: publication PMC4187570, “Clathrin complexes with the inhibitor kappa B kinase signalosome: imaging the interactome” (Physiological Reports, 2014)
# T1: IKKα (human (endogenous in A549), UniProt O15111 1-745)
# T1 construct: also called CHUK; source: endogenous, A549 cells (M-PER lysate for the pull-down; fixed, permeabilised cells for FRET)
# T1 sequence (looked up): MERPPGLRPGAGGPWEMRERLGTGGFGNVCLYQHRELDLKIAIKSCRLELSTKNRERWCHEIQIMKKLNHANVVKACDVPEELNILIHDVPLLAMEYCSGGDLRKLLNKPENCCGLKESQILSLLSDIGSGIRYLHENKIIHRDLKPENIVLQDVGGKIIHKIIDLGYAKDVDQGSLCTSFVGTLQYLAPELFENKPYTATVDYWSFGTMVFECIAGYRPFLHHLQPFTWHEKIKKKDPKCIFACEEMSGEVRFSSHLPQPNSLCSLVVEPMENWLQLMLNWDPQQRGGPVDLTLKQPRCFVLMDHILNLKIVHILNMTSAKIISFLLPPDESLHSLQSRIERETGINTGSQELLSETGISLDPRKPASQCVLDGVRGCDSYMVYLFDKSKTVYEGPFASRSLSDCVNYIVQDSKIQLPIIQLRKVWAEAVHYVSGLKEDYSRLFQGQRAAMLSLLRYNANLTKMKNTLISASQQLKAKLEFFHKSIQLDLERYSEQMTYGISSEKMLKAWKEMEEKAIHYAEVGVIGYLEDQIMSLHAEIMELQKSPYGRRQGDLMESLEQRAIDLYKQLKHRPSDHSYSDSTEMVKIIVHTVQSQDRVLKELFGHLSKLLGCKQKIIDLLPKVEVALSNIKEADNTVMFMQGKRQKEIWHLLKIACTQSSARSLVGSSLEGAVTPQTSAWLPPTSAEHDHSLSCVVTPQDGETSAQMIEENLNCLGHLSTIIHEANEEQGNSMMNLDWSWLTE
# B1: IKKβ (natural protein, human (endogenous in A549), UniProt O14920 1-756, looked up)
# chain: MSWSPSLTTQTCGAWEMKERLGTGGFGNVIRWHNQETGEQIAIKQCRQELSPRNRERWCLEIQIMRRLTHPNVVAARDVPEGMQNLAPNDLPLLAMEYCQGGDLRKYLNQFENCCGLREGAILTLLSDIASALRYLHENRIIHRDLKPENIVLQQGEQRLIHKIIDLGYAKELDQGSLCTSFVGTLQYLAPELLEQQKYTVTVDYWSFGTLAFECITGFRPFLPNWQPVQWHSKVRQKSEVDIVVSEDLNGTVKFSSSLPYPNNLNSVLAERLEKWLQLMLMWHPRQRGTDPTYGPNGCFKALDDILNLKLVHILNMVTGTIHTYPVTEDESLQSLKARIQQDTGIPEEDQELLQEAGLALIPDKPATQCISDGKLNEGHTLDMDLVFLFDNSKITYETQISPRPQPESVSCILQEPKRNLAFFQLRKVWGQVWHSIQTLKEDCNRLQQGQRAAMMNLLRNNSCLSKMKNSMASMSQQLKAKLDFFKTSIQIDLEKYSEQTEFGITSDKLLLAWREMEQAVELCGRENEVKLLVERMMALQTDIVDLQRSPMGRKQGGTLDDLEEQARELYRRLREKPRDQRTEGDSQEMVRLLLQAIQSFEKKVRVIYTQLSKTVVCKQKALELLPKVEEVVSLMNEDEKTVVRLQEKRQKELWNLLKIACSKVRGPVSGSPDSMNASRLSQPGQLMSQPSTASNSLPEPAKKSEELVAEAHNLCTLLENAIQDTVREQDQSFTALDWSWLQTEEEEHSCLEQAS
# notes: also called IKBKB; source: endogenous, A549 cells (M-PER lysate for the pull-down; fixed, permeabilised cells for FRET)
# B2: clathrin heavy chain 1 (natural protein, human (endogenous in A549), UniProt Q00610 1-1675, looked up)
# chain: MAQILPIRFQEHLQLQNLGINPANIGFSTLTMESDKFICIREKVGEQAQVVIIDMNDPSNPIRRPISADSAIMNPASKVIALKAGKTLQIFNIEMKSKMKAHTMTDDVTFWKWISLNTVALVTDNAVYHWSMEGESQPVKMFDRHSSLAGCQIINYRTDAKQKWLLLTGISAQQNRVVGAMQLYSVDRKVSQPIEGHAASFAQFKMEGNAEESTLFCFAVRGQAGGKLHIIEVGTPPTGNQPFPKKAVDVFFPPEAQNDFPVAMQISEKHDVVFLITKYGYIHLYDLETGTCIYMNRISGETIFVTAPHEATAGIIGVNRKGQVLSVCVEEENIIPYITNVLQNPDLALRMAVRNNLAGAEELFARKFNALFAQGNYSEAAKVAANAPKGILRTPDTIRRFQSVPAQPGQTSPLLQYFGILLDQGQLNKYESLELCRPVLQQGRKQLLEKWLKEDKLECSEELGDLVKSVDPTLALSVYLRANVPNKVIQCFAETGQVQKIVLYAKKVGYTPDWIFLLRNVMRISPDQGQQFAQMLVQDEEPLADITQIVDVFMEYNLIQQCTAFLLDALKNNRPSEGPLQTRLLEMNLMHAPQVADAILGNQMFTHYDRAHIAQLCEKAGLLQRALEHFTDLYDIKRAVVHTHLLNPEWLVNYFGSLSVEDSLECLRAMLSANIRQNLQICVQVASKYHEQLSTQSLIELFESFKSFEGLFYFLGSIVNFSQDPDVHFKYIQAACKTGQIKEVERICRESNCYDPERVKNFLKEAKLTDQLPLIIVCDRFDFVHDLVLYLYRNNLQKYIEIYVQKVNPSRLPVVIGGLLDVDCSEDVIKNLILVVRGQFSTDELVAEVEKRNRLKLLLPWLEARIHEGCEEPATHNALAKIYIDSNNNPERFLRENPYYDSRVVGKYCEKRDPHLACVAYERGQCDLELINVCNENSLFKSLSRYLVRRKDPELWGSVLLESNPYRRPLIDQVVQTALSETQDPEEVSVTVKAFMTADLPNELIELLEKIVLDNSVFSEHRNLQNLLILTAIKADRTRVMEYINRLDNYDAPDIANIAISNELFEEAFAIFRKFDVNTSAVQVLIEHIGNLDRAYEFAERCNEPAVWSQLAKAQLQKGMVKEAIDSYIKADDPSSYMEVVQAANTSGNWEELVKYLQMARKKARESYVETELIFALAKTNRLAELEEFINGPNNAHIQQVGDRCYDEKMYDAAKLLYNNVSNFGRLASTLVHLGEYQAAVDGARKANSTRTWKEVCFACVDGKEFRLAQMCGLHIVVHADELEELINYYQDRGYFEELITMLEAALGLERAHMGMFTELAILYSKFKPQKMREHLELFWSRVNIPKVLRAAEQAHLWAELVFLYDKYEEYDNAIITMMNHPTDAWKEGQFKDIITKVANVELYYRAIQFYLEFKPLLLNDLLMVLSPRLDHTRAVNYFSKVKQLPLVKPYLRSVQNHNNKSVNESLNNLFITEEDYQALRTSIDAYDNFDNISLAQRLEKHELIEFRRIAAYLFKGNNRWKQSVELCKKDSLYKDAMQYASESKDTELAEELLQWFLQEEKRECFGACLFTCYDLLRPDVVLETAWRHNIMDFAMPYFIQVMKEYLTKVDKLDASESLRKEEEQATETQPIVYGQPQLMLTAGPSVAVPPQAPFGYGYTAPPYGQPQPGFGYSM
# notes: clathrin heavy chain 1 (CLTC), human, SwissProt entry name CLH1_HUMAN; also called CHC; CLH1; source: endogenous, A549 cells (M-PER lysate for the pull-down; fixed, permeabilised cells for FRET)
# How the values were obtained:
# Experiment in all cases: FRET or BRET; corrected FRET between fluorophore-labelled secondary antibodies (Alexa 488:Cy3, Cy3:Cy5) on primary antibodies, indirect immunofluorescence of acetone/methanol-fixed resting A549 cells, deconvolved Z-stacks; epitopes within about 30 nm; FRETN = cFRET normalised to the acceptor's emission, mean of four sets of experiments
# [1] = molecular target: IKKβ (human (endogenous in A549)) (UniProt O14920)
# [2] = molecular target: IKKα (human (endogenous in A549)) (UniProt O15111)
# [3] = molecular target: T1, IKKα; details: partners not purified
# [4] = molecular target: B1; details: partners not purified
Molecule,normalized FRET (FRETN) [1],normalized FRET (FRETN) [2],normalized FRET (FRETN) [3],normalized FRET (FRETN) [4]
heat-shock protein-90 (from UniProt P07900 1-732) (natural protein),0.632,0.3,–,–
B1,–,–,0.362,–
B2,–,–,0.7,0.522
